Measurements: the DeepSol protein solubility set

Assay: soluble on expression in E. coli; label from the status in PepcDB or PDB records

Sequence	soluble on expression in E. coli
MGSDKIHHHHHHMVNGNITQLSDMQIPENWGAYLAEKSTQNNAFFTSGVVQNVPQIAALLGAGKVANMPLFKPLADDDPQVPDDTTDLLVNKITTDLAQARKLGFDQAWSATDLSAELSGADPLSAIGDQVSDYWSHVYEKLLLQTLTGVFSSTSMKGVNQLDTTTDKTDTTFSLKNFNKARFLLGDRYKDLAIVAVHSDILRQLQDANLVDAKNNSTFVLNGNSNVPTAIQTPDAGDKIKGVQIVVDDSLPVDNGKYTSYLFAQGAVGYSELPVTNAVETNRDPLKNHGIDYLVNRRRFVFAPQGLSWNESNFVTKNPGKTYPSMTDLADGTNWSKVYDHKLIPMAQFVTSADAIVPSTTADPQTGK	not soluble
MRFSILGLAFASVLSGCVSTTPTTSALSSTDVTTFYDYQLHSPSGNALALQNLPDELKNADVILVGEWHTHAGIHRFQTDLLRQLSSGERRIALSMEQVTRDKQSVLDAYLKGEIGEQYFMSQSNAWPNYESDYRPLVEFAKQANLPVIAANTPKYIVRCIGRQGVDYLNKLDDEERSFVAENVNTANSPYKEKFMASMHHGKPEQTEKQYAAQVTWDETMAESIVKYLAQNPNAQVVHVAGKFHTEAGLGTAASILQRNPELKVVVVNPTSEISTNSPDYQLEVLEPPVRFVQDANRMAAYKHLSTRNDDLQCKLEHHHHHH	soluble
MAHHHHHHMFNNDPLQKYDKELFDLLEKEKNRQIETINLIASENLTNTAVRECLGDRISNKYSEGYPHKRYYGGNDYVDKIEELCYKRALEAFNVSEEEWGVNVQPLSGSAANVQALYALVGVKGKIMGMHLCSGGHLTHGFFDEKKKVSITSDLFESKLYKCNSEGYVDMESVRNLALSFQPKVIICGYTSYPRDIDYKGFREICDEVNAYLFADISHISSFVACNLLNNPFTYADVVTTTTHKILRGPRSALIFFNKKRNPGIDQKINSSVFPSFQGGPHNNKIAAVACQLKEVNTPFFKEYTKQVLLNSKALAECLLKRNLDLVTNGTDNHLIVVDLRKYNITGSKLQETCNAINIALNKNTIPSDVDCVSPSGIRIGTPALTTRGCKEKDMEFIADMLLKAILLTDELQQKYGKKLVDFKKGLVNNPKIDELKKEVVQWAKNLPFA	soluble
MAHHHHHHMQRHSSHLLLLLVAVVIPVCSEDKLDFTKLRDPFDMDEINRKLQEKVADDDPVQKAMPDPMDPKFRAPLRCSACGAVIEHAVRLLRPIIERQSERAARSGGVLPADALPKEYEMVDIFENLCGEVGRLYGLEVEKDKKRPTLRFSKSFGVSRLQGAWMPSFLTSTCEGVLDVEGEEKLAAMILGVARSEAEAGRGKVISMNPDQGIVDKVREMVCTKWEESAKGCDAYGVAIDPRETDNDDGAEEAASDL	soluble
MVEVVSVREHDRWRGVYVVELEDGSLRIATKNLVPGQRVYGERIFRYNGEEYREWNAYRSKLAAALLKGLIELPVKEGDRILYLGIASGTTASHMSDIIGPRGRIYGVEFAPRVMRDLLTVVRDRRNIFPILGDARFPEKYRHLVEGVDGLYADVAQPEQAAIVVRNARFFLRDGGYMLMAIKARSIDVTTEPSEVYKREIKTLMDGGLEIKDVVHLDPFDRDHAMIYAVMRR	soluble
TELTKCKVSHAIKDIDGYQGISLLEWACVLFHTSGYDTQAVVNDNGSTEYGLFQISDRFWCKSSEFPESENICGISCDKLLDDELDDDIACAKKILAIKGIDYWKAYKPMCSEKLEQWRCEKP	soluble
MQSLIGLMRPETGKKLENLNHFIQQFEKVLIAFSGGVDSSTLAAVCSNAGVEVLAVTVLSSVSPRREMEEAKRIAEELGVRHEFLKIDLMDEDFRRNDENRCYYCKRRVLSALVEEAKKRGIEVVLEGTNASDLSDHRPGYRAVRELDGVNSPWVEFGITKEEIREIARSMGYSFHDKPSMACLASRIPFGIEIDEEKLKMVDEAEEAVIELAGVKQVRVRNYDGVAVVEVAGDELRKLLNCAEKVRDKLKKIGFRAVLIDLEGYRSGKRLFKF	not soluble
YEMSSVGVINLRNMYSTYDPTEVKGKINEGPPFSGSLFYKNIPYGNSSIELKVEMNSVEKANFFSGKRVDIFTLEYSPPSNSNIKKNSYGGITLSDGNRIDKKNIPVNIFIDGVQQKYSYTDISTVSTDKKEVTIQELDVKSRYYLQKHFNIYGFGDVKDFGRSSRFQSGFEEGNIIFHLNSGERISYNMFDTGHGDRESMLKKYSDNKTAYSDQLHIDIYLVKFNK	soluble
MKRLAVILITLALVSSMCITNSNEKRENMKNAKVLMVIAPKDFRDEELFEPMAVFESNGLKVDVVSTTKGECVGMLGNKITVEKTIYDVNPDDYVAIVIVGGIGSKEYLWNNTKLIELVKEFYNKNKVVSAICLSPVVLARAGILKGKKATVYPAPEAIEELKKAGAIYEDRGVVVDGNVITAKSPDYARLFGLEVLKAIEKNNE	soluble
MLVNFIKNFIPHRFYSSKTEIPVVRLHGAIIDSSSSIARTLSLGRCANLLDKAFAYKKAPAVAVIINSPGGSPVQSRLIFKRIRDLAEEKKKQVLMFIEDIAASGGYMIACAGDEIFADPSSIVGSIGVVSASFGFPELLKKIGIERRVYTAGKNKVTLDPFQPEKKTDIEHLKSLQLEVHKTFIDLVKERRAEKLSNDPNIFTGMFWSGKKSVELGLIDGLNDVRSVIKERFGDDTKLRLIIPPKSLFGPKTPSGVTAHAVHTAIDSALMVAQERALWQYYGLLEHHHHHH	soluble
MSSEELEQVWSNIKSEARALAECEPMLASFFHATLLKHENLGSALSYILANKLANPIMPAIAIREVVEEAYRSDAHMIVSAARDILAVRLRDPAVDKYSTPLLYLKGFHALQAYRIGHWLWAQDRKALAIYLQNQVSVAFGVDIHPAATIGCGIMLDHATGIVIGETAVVENDVSILQSVTLGGTGKTSGDRHPKIREGVMIGAGAKILGNIEVGRGAKIGAGSVVLQSVPAHTTAAGVPARIVGKPESDKPSLDMDQHFNGSIQGFEYGDGI	not soluble
MTQDYRVLLYYQYVPIEDGETFAQKHLADCKELGLKGRILVADEGINGTVSGTIEQTNAYMELMKNDPRFSSTIFKIDEAEQNAFKKMHVRYRPELVNLSLEDDVNPLELTGAYLDPKEFREAMLDENTVVIDARNDYEFDLGHFRGAIRPEIRSFRELPQWIRDNKEQFMEKRVLTYCTGGIRCEKFSGWLVREGFKDVGQLHGGIATYGKDPEVQGDLWDGQMYVFDSRIAVPINQKEHVIVGRDWFDGSPCERYINCGNPECNRQMLASEENEAKYLGACSHECRVHPNNRYIKAHQLSNQEVQERLALLEKDLASLEHHHHHH	soluble
MSILPSNTPLYSHPLPQIEQWLKDQGCQQDENELHCWRLQKPSWQAEIWLDIEQITVRYIQAGENGQNIQRSFKYSLSRQDIEQAIFCGP	not soluble
MAPIRRSSRLAERYDAIESKKRSLKRLEEQIKAEEEQFSDKMKQLEDEIKIKEQVITMFKRKTVRREWMRNSRQATTNINIAQIESLKLQLEEGEKDIAEAEKQAEPTTPQQEAELSETFKQMVRDRMKVKDVDEKLLQQYMKKENVEFEWRSCFICTMEYSRTDKNLHPIILNCGHNLCRSCINKLTGNGIVKCPFDRLDTRVRVTGLPRNLALINL	not soluble
MMKPIIREAKPQDKPFIEEIAHLTWDGEDYLARVFDEWIKDGNFYVLELNGKVIGTVKLTLLPNRVSWMEGLRVHPNYHGRGFGKMLHNFIVEKGRMMASEGIIDALEFSPYFLNKKIIAMAEKNGFWVKARFFVASVRVGDFKPEEPIRIEPKLEDLTLGIIPVGWRFIKRSEEALEWIRKNAEVYEYNGLKFIGPKKETIFTPLEPGPAVLKALLPAMAWVAREKDKEEFNLMLSSSIKPVLSVFRRIGVYIWDDAKEPNVLVFRKKLKDKKGLIPFVNKWNYNKEY	not soluble
MILCSEKEKCEGIKNSKDEGIIPRVLILSTLQGEPSREKAKIGIFGINPGPHLPFERLYYTDILKKHGLFTSEYSKSNAIKAFKEIHDTWVSEFIKNYRNYPFHYKYFANTLEFLKKAKTVLIYRRKYNSVWRISILLEHHHHHH	not soluble
MSLRSRDITLTGTYLPNTPVTLVVDGVAQVQGMTDSAGRFRLTGTLEPGRNRVYVMGEGPLASREYAVRYLPPYTDMAGHWAEAVVDALHERGVVSLYPLPRFEPEAQVTRMEFAVMVARALRLPAAEEQAPFTDVAVMPQWALLEVAAAVKAGIIKGMPDGSFAPDRLVTRAEMAAMLTRALAWAGLEVKPEAPEFADQAEIPDWAVEPVAAAVRHGLIKGYPDGTFRPGSPTTRAEAATMVHRLLQTVIGLNPEGHHHHHH	soluble
GKQDRQMIVVDPRKTDTAKLADVHLQVEPHKDYELVSALRAAAKGFNIEAEQVAGVPTETIYEAVDICKNAQFGSLFFAMGVTMSRGKHRIIDNAIQFVIDMNAYTKFVLTPMRGHYNVNGFNQVSTWVTGYPYGVDFSRGYPRYNPGETASNDVLQRGDTDMMINVASDAGAHFPQKAVQHMAKIPLVCIDPHETPSSVISNIVLPPAITGLEVSGTAYRMDGVPIELRKVIKAPEGMLSDAEIMK	not soluble
MQLNATQLQAALPWDSLIEALKDIFVREVCSPVRHHHSINVPDKLSATLLLMPAWLEGEYLGIKQVNVFPSNNVSNIPALSSHYMLSCGKTGQPLMQLDGNELTARRTAAASALASAYLSREDARVMLMVGSGRMARRLITAHMSVRPIKIVQVWDRKEEKAQTLVTELKESGINAEVCKPDNLQAAAQQADIISCATMATSPLILGKWLKPGAHLDLVGSFTPTMRETDNAAMQLCSVFVDTRAGALSETGDLIIPIRDGAITQEKIIAEFTQLCSGEHRGRADLANPDNSITLFKSVGDSREDLAAAILAFEQCNQR	not soluble
CTCSPSHPQDAFCNSDIVIRAKVVGKKLVKEGPFGTLVYTIKQMKMYRGFTKMPHVQYIHTEASESLCGLKLEVNKYQYLLTGRVYDGKMYTGLCNFVERWDQLTLSQRKGLNYRYHLGCN	soluble
MGARGRMAASKGAVMSLLLDAYQKRDKLAMVSFRKNEAFVNLPVTSSIELAARMLKEMPVGGRTPFSAGLLKGYEIAQNYLRKEPGGRPLIILVTDGKANRAIGQGKPLDEVFTISEKISREERIRFLVVDTEEPGLVTFGLAKKIAGLLDAWYYRIDDLRADTLVSIVKTMMP	not soluble
MLYIPQFSIYFCLGYLLLFCKISNAVKQSWEINQELITEANKEHTVFGDMLLTPAQLIRYENSKDSDLSIRGVSIKGSSMNRWSNNIVPYVISPQYSPAQKQILVSSLRYFERVSCFKFVERTTQNDYLFIVPLDGCYSYVGKIGGRQTLSLAADCIADYIIWHEMMHAIGFEHEHQRPDRDSFIRVDYANVIPGQMINFDKLKTSHVEYPDIYDFKSIMHYDGYAFGRVDTARRVRLATMTPLKPGVTLEDNMKFTATDIEKLNRLGQCGARGGQYSNQGVVASTCQDVATAVSCEGNRRRGMCKNPFYKQMMIKSCQKTCRLCSYTRMIDEDDDLTPNTTVKSVKCEDKHPRCDIYSHNGFCTLPFYDDVRYQLCAKTCNLC	not soluble
MRVAFFGTPLWAVPVLDALRKRHQVVLVVSQPDKPQGRGLRPAPSPVARYAEAEGLPLLRPARLREEAFLEALRQAAPEVAVVAAYGKLIPKEALDIPPHGFLNLHPSLLPKYRGAAPVQRALLAGERETGVSIMRLDEGLDTGPLYAVWRTPILPDEDAVALGNRLRDKGVELLLEVLERLPELTPRPQEGEASYAPPLSKEEGRLDFGESAEALYRRHRAVQPWPGSYFFHRGQRVKALRLRPEPGEGEPGVVARVGPEGVVVGTASGLLLLLEVQPEGRRAMPAADWARGYGVAPGTRLGQV	soluble
MPYIALEDGFLRSFGTGRHFPPLSLVVDRLGIYYDATRESELECLLASSRTLLDGIEDAVPEAMELVRERRLSKYNHGGFLATGVPADGRRRVLVVDQTEGDMSVTLGCAEAATFEAMLAAARAENPGALICVKTHPEVAAGDKSGYLSRVTDDADTLALRHDMNPLALLEQMDRVYVVSSQMGFEALMLDKPVICFGMPWYAGWGVTDDRQRCERRGRARSVEELFAGAYFHYTRYLDPVLH	not soluble
